From the supplement of paper PMC9170038 come the findings set out here.

In this data set the test system is K4 kissing-loop RNA reporter. Description: apparent KD of K4 kissing-loop reporter; higher = weaker reporter binding. Particulars: Eterna round: R107. The procedure: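 RNA-MaP round R107: designed RNA switches with theophylline, tryptophan, arginine or FMN aptamers are transcribed on-chip within common flanks. They are titrated with a labelled K4 kissing-loop RNA reporter in RNA-MaP buffer (100 mM Tris pH 7.5, 80 mM KCl, 4 mM MgCl2), without ligand or with the indicated ligand. Median apparent KD per design.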

Setting [1] is: input ligand: theophylline 20 uM.
The mark [2] stands for this setting: input ligand: tryptophan 2.4 mM.
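Further: bound reporter read as fluorescence of individual clusters on recovered sequencing chips by microscopy, with normalized cluster intensities fitted with a binding model.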

Regarding “GGAGGGAUCUCGGCCGCCACUCGUGGGAAAUGGGCCUCAGGGAUAUAGUGAUGUUAUGUAAAGAAGAGGACCGGGAGAAGGAAGG [ExTryptoB.Dg]”, the “apparent KD of K4 kissing-loop reporter” value was 319 nM (input ligand: FMN 200 uM); 269 nM (input ligand: arginine 13.2 mM); 330 nM (input ligand: none); 366 nM under setting [1]; 240 nM under setting [2].
For the sequence “GGAGUUACCUGGGAUACCAGUCGGAGGCCCAGAGCUCGGAGUGAUGUUCUGGGAUGUUUCGGCCCUUGGCAGCUCUGGGUCUCCC [#2 Exclusion - Theophylline B Attempt #7 (HarryS)]”, the “apparent KD of K4 kissing-loop reporter” value was 1690 nM (input ligand: FMN 200 uM); 563 nM (input ligand: arginine 13.2 mM); 1040 nM (input ligand: none); 895 nM under setting [1]; 718 nM under setting [2].
On the same counts, the results for “GGAUAGGACAGAGGAUAUGGAGAGUCUACAAAGUAGGCUCAUAAUCCUUGAAUGGAAGUGAUGUUUCCAGAAGGCUGUCCUAUCG [FmnBX 17 - #SwitchBubble #StaticStem #Palindromic]” are 664 nM, 99.9 nM, 103 nM, 101 nM and 119 nM.
On the same counts, the results for “GGAUAGGACAGAGGAUAUGGUAGUGAUGUUACCAAACUGGUUACUCUUGUCAGAAAACUGGCAUCUCCAGAAGGCUGUCCUAUCG [KL-XFMN-B10]” are 594 nM, 109 nM, 123 nM, 135 nM and 127 nM.
On the same counts, the results for “GGAUAGGACAGAGGAUAUGGUAGUGAUGUUACCAAACUGGUUAUCAAUGUUAGAAAAUUGACAAAACCAGAAGGCUGUCCUAUCG [KL-XFMN-B15]” are 129 nM, 65.6 nM, 67.8 nM, 59.2 nM and 66.6 nM.
As to “GGAUAGGACUGAGGAUAUGGGCUAGGCAAGAAUAACUUGUCUAGCAAAUCCAUGAGGAGUGAUGUUCCAGAAGGCAGUCCUAUCG [FmnBX 1 U10+A76]”, the “apparent KD of K4 kissing-loop reporter” value is, setting by setting: (input ligand: FMN 200 uM) 732 nM; (input ligand: arginine 13.2 mM) 135 nM; (input ligand: none) 170 nM; under setting [1], 167 nM; under setting [2], 113 nM.
For “GGAUCCACCAGUGAUGUUGGAAAAUACUCCAAGGAUAUGACGAAAGUCAGAAGGUGGUAGACUGGACAAAGUCCAGUCGGAUCCA [FmnA 27 #SwitchBubble #K4Early]” the same measures were 531 nM, 205 nM, 527 nM, 537 nM and 504 nM.
Take “GGAUCCACCAGUGAUGUUGGAGAAAACUCGAAGGAUAUGACGAAAGUCAGAAGGUCGUAGACUGGACAAAGUCCGGUCGGAUCCA [FmnA 19 G30+C56]”: the “apparent KD of K4 kissing-loop reporter” value is 500 nM (input ligand: FMN 200 uM); 541 nM (input ligand: arginine 13.2 mM); 539 nM (input ligand: none); 490 nM under setting [1]; 461 nM under setting [2].
For “GGAUCCACCAGUGAUGUUGGAGAAAACUCUAAGGAUAUGACGAAAGUCAGAAGGUGGUAGACUGGACAAAGUCCGGUAGGAUCCA [FmnA10 U30+A78]” the same measures were 682 nM, 201 nM, 617 nM, 216 nM and 250 nM.
Consider “GGAUGCAUUUUGGAUACCAGUCUAGUGAUGUUAGACUGAUAAUAACGGGCAGCGUUGGCAGACCCUUGGCAGCCAAAAUACUUAA [theeternabot_exclusion_KL_Theo_B_33]”, for which the “apparent KD of K4 kissing-loop reporter” value is, setting by setting: (input ligand: FMN 200 uM) 62.2 nM; (input ligand: arginine 13.2 mM) 64.6 nM; (input ligand: none) 54.8 nM; under setting [1], 63.9 nM; under setting [2], 58.9 nM.
For “GGCACUACAGCGGCCGCCACUGUUUAGUCCAUCGCUUGCGAGUGAUGUUCGUAGGUACUGCAGCUCAGGACCGGGCUGUCCUUAC [theeternabot_sameState_KL_Trp_B_34]” the same measures were 475 nM, 393 nM, 471 nM, 310 nM and 388 nM.
On the same counts, the results for “GGCACUUUUGGUAGAAAACAUCUACCUCUAUAGGAUAUGCCGAAAGGCAGAAGGAUAGACCUACAGAGUGAUGUUCUGCGUGCCU” are 874 nM, 143 nM, 447 nM, 356 nM and 283 nM.
For “GGCAUGGUGACGCGGCGGCCAUGCACUUGGGAGGAUAUGUUUCGUGACAGAAGGCCCAGUGAUGUUGGGUCUGUUCAAAAGGACU [Riteveat]” the same measures were 491 nM, 170 nM, 192 nM, 174 nM and 141 nM.
For the sequence “GGCAUGGUGACGCGGCUGCCAUACGCUUGGGAGGAUAUGUUUCGUGACAGAAGGCCCAGUGAUGUUGGGUCUGUUCAAAAGGACU [Arisus]”, the “apparent KD of K4 kissing-loop reporter” value runs as follows: (input ligand: FMN 200 uM) 659 nM; (input ligand: arginine 13.2 mM) 160 nM; (input ligand: none) 170 nM; under setting [1], 169 nM; under setting [2], 150 nM.
For “GGCCGCAAGGCGAGCGCUCCCACUCCGGAAGGAGCGCCCGUAAGGGCAGGUAGGUCGCCGGAGUGAUGUUCCGGUGGAGGGCUCG [#2 Exclusion - Arginine A Attempt #17 (Inspired by Omei)]” the same measures were 565 nM, 239 nM, 547 nM, 443 nM and 460 nM.
Consider “GGCGCAGUGAUGUUGCGGGCCGAGAGUGAUACCAGCCGUAUUUGUGGCCCUUGGCAGCGCAGAACCAGUGAUGUUGGUUACUUGG [Same State Theophylline A GF 22]”, for which the “apparent KD of K4 kissing-loop reporter” value turned out to be 223 nM (input ligand: FMN 200 uM); 513 nM (input ligand: arginine 13.2 mM); 423 nM (input ligand: none); 467 nM under setting [1]; 421 nM under setting [2].
For “GGCGCCAGGAAAGGAUAUCUAAGUCUAUUAUCAAGAAUUGCCUCAAGAUCGGAGUGAUGUUCCCAGAGAGAAGGUUCUAUCCGCU [theeternabot_exclusion_KL_FMN_B_38]” the same measures were 170 nM, 193 nM, 186 nM, 206 nM and 164 nM.
On the same counts, the results for “GGCGGCUGCGCGGAAGCGCAGCCGGCCGAUACCAGCGCGACGGCGCGCCCUUGGCAGCGGCGCCGAGUGAUGUUCGGCCUGCCGU [#2 Same State - Theophylline A Attempt #21 (HarryS)]” are 122 nM, 82.2 nM, 95.3 nM, 124 nM and 117 nM.
On the same counts, the results for “GGCGUCUAAAAGUGCCUAGAGAGAAAGGAUACCAGCACCCGGCGGUGCCCUUGGCAGCCUAGCCCAGUGAUGUUGGGUCCUCUAA [Lasorian]” are 380 nM, 159 nM, 312 nM, 336 nM and 286 nM.
As for “GGCUAGACUUAGCUAGGUACAUAAUACGAUACCAGUCUAGAAAUAGACCCUUGGCAGCGUAGGCAGUGAUGUUGCCACUAGCUGA [Theo B SS t7]”, the “apparent KD of K4 kissing-loop reporter” value stood at 104 nM (input ligand: FMN 200 uM); 144 nM (input ligand: arginine 13.2 mM); 114 nM (input ligand: none); 144 nM under setting [1]; 113 nM under setting [2].
With “GGGAACUCUUACGAUACCAGCCGGAGUGAUGUUCCGCGCUUGGACGUAGUAACCCGCACCGGCCCUUGGCAGCGUGGAUCUUAUA [Esbedi]”, the “apparent KD of K4 kissing-loop reporter” value runs as follows: (input ligand: FMN 200 uM) 89.9 nM; (input ligand: arginine 13.2 mM) 73.5 nM; (input ligand: none) 73.9 nM; under setting [1], 82.7 nM; under setting [2], 83.1 nM.
For “GGGAGAAGAGCGGCCGCCACUCAGAAAGAAGAAGAAUAUAGUGAUGUUAUAUAGGAAAGGAAGAAGAGGACCGGGCUUAAGAGGG [#18 K4 Tryptophan B Same State]” the same measures were 144 nM, 132 nM, 149 nM, 177 nM and 171 nM.
